Values quoted from earlier work in patent publication US10385405B2, “Gene expression markers of tumor resistance to HER2 inhibitor treatment” (GENENTECH, INC., priority 2007, dated 2019).

Legend:
[1] = test system: incurable, locally advanced, recurrent or metastatic solid tumors
[2] = test system: trastuzumab-resistant models harboring PTEN loss or PIK3CA activating mutations

Row | Compound | tolerability ([1]; given intravenously every 3 weeks) | confirmed partial responses ([1]; in vivo) | tumor regression ([1]; patients evaluable for response) | pharmacokinetics, linearity (doses of 2.0-15 mg/kg) | antibodies to pertuzumab (in vivo) | sensitivity of trastuzumab-resistant models [2]
1 | Pertuzumab: HER dimerization inhibitor antibody that inhibits HER2 forming heterodimers with other HER receptors | generally well tolerated | Two | 3 of 20 | linear | not detected | –
2 | CS(=O)(=O)N1CCN(Cc2cc3nc(-c4cccc5[nH]ncc45)nc(N4CCOCC4)c3s2)CC1 [GDC-0941] | – | – | – | – | – | sensitive
